Substitutions are numbered along the chain they refer to. Values belong to the binder of their own block, whether it stands above or below them.
Experiments:
LAG-3 [1] = biological target: T1, LAG-3 (human, UniProt P18627 23-450, limits assumed); assay: cell-based or functional assay
T1 sequence (looked up): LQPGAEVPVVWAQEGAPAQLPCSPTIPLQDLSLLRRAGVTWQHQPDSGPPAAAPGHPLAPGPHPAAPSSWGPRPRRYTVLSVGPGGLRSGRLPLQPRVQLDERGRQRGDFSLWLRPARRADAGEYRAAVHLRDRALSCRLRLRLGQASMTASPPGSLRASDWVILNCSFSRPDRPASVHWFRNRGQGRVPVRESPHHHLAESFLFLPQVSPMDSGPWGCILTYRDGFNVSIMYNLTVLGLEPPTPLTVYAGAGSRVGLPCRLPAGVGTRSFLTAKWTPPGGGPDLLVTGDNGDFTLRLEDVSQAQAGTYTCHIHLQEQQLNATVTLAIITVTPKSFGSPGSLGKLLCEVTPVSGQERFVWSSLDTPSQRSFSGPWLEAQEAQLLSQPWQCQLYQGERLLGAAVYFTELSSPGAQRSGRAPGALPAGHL

LAG-3 [2] = biological target: T1, LAG-3; assay: cell-based or functional assay; remark: listed apart in the source

EC50 of T cell proliferation (CCK8) in mixed lymphocyte reaction (LAG-3 [1]): 0.00723 mg/L
B1: 嵌合抗体CA-1 (antibody, human IgG4 S228P, kappa)
heavy: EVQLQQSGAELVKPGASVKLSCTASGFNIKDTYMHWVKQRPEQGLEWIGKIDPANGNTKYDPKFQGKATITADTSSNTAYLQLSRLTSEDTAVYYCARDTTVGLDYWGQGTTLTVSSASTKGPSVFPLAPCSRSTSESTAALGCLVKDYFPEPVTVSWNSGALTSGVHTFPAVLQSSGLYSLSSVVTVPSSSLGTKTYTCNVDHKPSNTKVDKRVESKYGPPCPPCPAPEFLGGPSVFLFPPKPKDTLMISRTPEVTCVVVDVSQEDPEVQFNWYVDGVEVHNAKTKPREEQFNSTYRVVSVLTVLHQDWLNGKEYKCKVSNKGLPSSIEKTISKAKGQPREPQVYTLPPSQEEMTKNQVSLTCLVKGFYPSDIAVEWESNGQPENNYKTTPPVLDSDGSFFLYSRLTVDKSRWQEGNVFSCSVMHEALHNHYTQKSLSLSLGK
light: DIVITQSTAIMSASLGEKVTMSCRASSSVNYMYWYQQKSDASPKLWIYYTSKLASGVPARFSGSGSGTSYSLTISSMEAEDAATYYCQQWSSNPHTFGGGTKLEIKRTVAAPSVFIFPPSDEQLKSGTASVVCLLNNFYPREAKVQWKVDNALQSGNSQESVTEQDSKDSTYSLSSTLTLSKADYEKHKVYACEVTHQGLSSPVTKSFNRGEC

EC50 of IL-2 secretion in mixed lymphocyte reaction (CD4+ T cells + DC, 5 days) (LAG-3 [2]): 0.121 mg/L
B5: MA-4 鼠源抗体 (mouse IgG1 / mouse Ck) (antibody, V domains shown)
VH: QVKLEESGPGLVQPSQSLSITCTVSAFSLTTYAVHWVRQSPGKGLEWLGVIWSGGSTDYNTAFISRLNITKDNSKSQVFFKMNSLQANDTAIYYCARLDGTFFDYWGQGTTLTVSS
VL: DIVLTQTPAIMSASLGERVTMTCTASSSVSSSYLHWYQQKPGSSPKLWIYSTSNLASGVPARFSGSGSGTSYSLTISSMEAEDAATYYCHQYHRSPPTFGGGTKLEIKA

EC50 of T cell proliferation (CCK8) in mixed lymphocyte reaction (LAG-3 [1]): 0.0271 mg/L
B7: 人源化抗体HA-2 (human IgG4 / human Ck) (antibody, V domains shown)
VH: QVQLVQSGAEVKKPGASVKVSCKASGYTFTDTYMHWVRQAPGQGLEWIGKIDPANGNTKYDPKFQGRATITADTSISTAYMELSRLRSDDTAVYYCARDTTVGLDYWGQGTLVTVSS
VL: DIVITQSPAFLSVTPGEKVTITCRASSSVNYMYWYQQKPDQAPKLLIYYTSKLASGVPSRFSGSGSGTDYTFTISSLEAEDAATYYCQQWSSNPHTFGGGTKVEIKR

EC50 of T cell proliferation (CCK8) in mixed lymphocyte reaction (LAG-3 [1]): 0.015 mg/L
B8: 人源化抗体HA-3 (human IgG4 / human Ck) (antibody, V domains shown)
VH: B7 VH with T28N, F29I
VL: B7 VL

EC50 of T cell proliferation (CCK8) in mixed lymphocyte reaction (LAG-3 [1]): 0.0318 mg/L
B9: 人源化抗体HA-5 (human IgG4 / human Ck) (antibody, V domains shown)
VH: B7 VH with T28N, F29I, T30K, R38K, R67K
VL: B7 VL with Q41A, A42S, L46W, S59A, D69S

EC50 of T cell proliferation (CCK8) in mixed lymphocyte reaction (LAG-3 [1]): 0.00688 mg/L
B10: 人源化抗体HA-1 (human IgG4 / human Ck) (antibody, V domains shown)
VH: B7 VH
VL: B7 VL with Q41A, A42S, L46W

Second part, the binder before the results:

B2: MA-1 鼠源抗体 (mouse IgG1 / mouse Ck) (antibody)
heavy: EVQLQQSGAELVKPGASVKLSCTASGFNIKDTYMHWVKQRPEQGLEWIGKIDPANGNTKYDPKFQGKATITADTSSNTAYLQLSRLTSEDTAVYYCARDTTVGLDYWGQGTTLTVSSAKTTPPSVYPLAPGSAAQTNSMVTLGCLVKGYFPEPVTVTWNSGSLSSGVHTFPAVLQSDLYTLSSSVTVPSSTWPSETVTCNVAHPASSTKVDKKIVPRDCGCKPCICTVPEVSSVFIFPPKPKDVLTITLTPKVTCVVVDISKDDPEVQFSWFVDDVEVHTAQTQPREEQFNSTFRSVSELPIMHQDWLNGKEFKCRVNSAAFPAPIEKTISKTKGRPKAPQVYTIPPPKEQMAKDKVSLTCMITDFFPEDITVEWQWNGQPAENYKNTQPIMDTDGSYFVYSKLNVQKSNWEAGNTFTCSVLHEGLHNHHTEKSLSHSPG
light: DIVITQSTAIMSASLGEKVTMSCRASSSVNYMYWYQQKSDASPKLWIYYTSKLASGVPARFSGSGSGTSYSLTISSMEAEDAATYYCQQWSSNPHTFGGGTKLEIKADAAPTVSIFPPSSEQLTSGGASVVCFLNNFYPKDINVKWKIDGSERQNGVLNSWTDQDSKDSTYSMSSTLTLTKDEYERHNSYTCEATHKTSTSPIVKSFNRNEC
EC50 of IL-2 secretion in mixed lymphocyte reaction (CD4+ T cells + DC, 5 days) (LAG-3 [2]): 0.024 mg/L

B3: MA-2 鼠源抗体 (mouse IgG1 / mouse Ck) (antibody, V domains shown)
VH: EVQLQQSGAELVKPGASVKLSCTASGFNIKDTYMHWVKQRPEQGLEWIGKIDPANGNTKYDPKFQGKATITADTSSNTAYLQLSRLTSEDTAVYYCARDTTVGLDYWGQGTTLTVSS
VL: DIVLTQTPAIMSASLGEKVTMSCRASSSVNYMYWYQQKSDASPKLWIYYTSNLAPGVPARFSGSGSGNSYSLTISSMEGEDAATYYCQQFTSSPSMTFGGGTKLEIKA
EC50 of IL-2 secretion in mixed lymphocyte reaction (CD4+ T cells + DC, 5 days) (LAG-3 [2]): 0.03 mg/L

B4: MA-3 鼠源抗体 (mouse IgG1 / mouse Ck) (antibody, V domains shown)
VH: EVKLEESGPELVKPGASVKISCKASGYSFTSYYIHWVKQRPGQGLEWIGWIFPGTGNTRYNEKFKGKATLTADTSSSTVYMQLSGLTSEDSAVYFCARIGGRLTGDAMDYWGQGTSVTVSS
VL: DIVLTQSTASLAVSLGQRATISCRASESVDSYGNSFMHWYQQKPGQPPKLLIYLASNLESGVPARFSGSGSRTDFTLTIDPVEADDAATYYCQQNNEDPWTFGGGTKLEIKA
EC50 of IL-2 secretion in mixed lymphocyte reaction (CD4+ T cells + DC, 5 days) (LAG-3 [2]): 0.076 mg/L

B6: 人源化抗体HA-4 (human IgG4 / human Ck) (antibody, V domains shown)
VH: B7 VH with T28N, F29I
VL: B7 VL with Q41A, A42S, L46W
EC50 of T cell proliferation (CCK8) in mixed lymphocyte reaction (LAG-3 [1]): 0.0338 mg/L

Reference: patent publication CN114617961A (BEIJING ORIENTAL BAITAI BIOTECHNOLOGY CO LTD; BEIJING …, dated 2022)
